The results in this text go back to paper PMC10287724, “Structural basis of the interaction between BCL9-Pygo and LDB-SSBP complexes in assembling the Wnt enhanceosome” (Nature Communications, 2023).

Data set [1] deals with GST-hPygo2(58-84) (human) (UniProt Q9BRQ0). The experiment in a line: BLI; GST-Pygo2(58-84) wt or mutant loaded on GST biosensors, quenched with free GST; wt or mutant MBP-LDB1-SSBP2 in solution (0.03-30 uM); Octet RED96, 30 °C; KD from steady-state analysis. A general note: In BLI a coated tip is dipped into the sample, and binding shifts an interference pattern.
The target of data set [2] is T1, hBCL9ΔHD3-Pygo2 complex, Avi-tagged, biotinylated (human, UniProt O00512 1-1426; Q9BRQ0 1-406, lacking hBCL9(461–489) fragment, biotin on the Avi tag (BirA)).
T1 construct: B-cell lymphoma 9 protein (BCL9), human, full length lacking HD3 (461-489); Pygopus 2 (Pygo2), human, full length; also called hBCL9^△HD3-Pygo2; HD3-deleted BCL9; source: HEK293S GnTI- cells, co-transfected, purified (Flag beads, Superose 6 SEC), biotinylated with BirA; not shown: Avi, C-terminal, kept
As to the kind of experiment: BLI; Octet RED96; biotinylated Avi-tagged BCL9-Pygo2 (wt or deletion) on SA biosensors, full-length LDB1-SSBP2 in solution at 1000, 300, 100, 30 nM; 30 °C; 20 mM Tris-HCl pH 8.0, 100 mM NaCl, 10 mM DTT, 10 mg/ml BSA; steady-state analysis. Particulars: both partners purified.
T1 sequence (O00512 other isoform, or with tags, fused parts or gaps with the stated changes, chain 1 of 2): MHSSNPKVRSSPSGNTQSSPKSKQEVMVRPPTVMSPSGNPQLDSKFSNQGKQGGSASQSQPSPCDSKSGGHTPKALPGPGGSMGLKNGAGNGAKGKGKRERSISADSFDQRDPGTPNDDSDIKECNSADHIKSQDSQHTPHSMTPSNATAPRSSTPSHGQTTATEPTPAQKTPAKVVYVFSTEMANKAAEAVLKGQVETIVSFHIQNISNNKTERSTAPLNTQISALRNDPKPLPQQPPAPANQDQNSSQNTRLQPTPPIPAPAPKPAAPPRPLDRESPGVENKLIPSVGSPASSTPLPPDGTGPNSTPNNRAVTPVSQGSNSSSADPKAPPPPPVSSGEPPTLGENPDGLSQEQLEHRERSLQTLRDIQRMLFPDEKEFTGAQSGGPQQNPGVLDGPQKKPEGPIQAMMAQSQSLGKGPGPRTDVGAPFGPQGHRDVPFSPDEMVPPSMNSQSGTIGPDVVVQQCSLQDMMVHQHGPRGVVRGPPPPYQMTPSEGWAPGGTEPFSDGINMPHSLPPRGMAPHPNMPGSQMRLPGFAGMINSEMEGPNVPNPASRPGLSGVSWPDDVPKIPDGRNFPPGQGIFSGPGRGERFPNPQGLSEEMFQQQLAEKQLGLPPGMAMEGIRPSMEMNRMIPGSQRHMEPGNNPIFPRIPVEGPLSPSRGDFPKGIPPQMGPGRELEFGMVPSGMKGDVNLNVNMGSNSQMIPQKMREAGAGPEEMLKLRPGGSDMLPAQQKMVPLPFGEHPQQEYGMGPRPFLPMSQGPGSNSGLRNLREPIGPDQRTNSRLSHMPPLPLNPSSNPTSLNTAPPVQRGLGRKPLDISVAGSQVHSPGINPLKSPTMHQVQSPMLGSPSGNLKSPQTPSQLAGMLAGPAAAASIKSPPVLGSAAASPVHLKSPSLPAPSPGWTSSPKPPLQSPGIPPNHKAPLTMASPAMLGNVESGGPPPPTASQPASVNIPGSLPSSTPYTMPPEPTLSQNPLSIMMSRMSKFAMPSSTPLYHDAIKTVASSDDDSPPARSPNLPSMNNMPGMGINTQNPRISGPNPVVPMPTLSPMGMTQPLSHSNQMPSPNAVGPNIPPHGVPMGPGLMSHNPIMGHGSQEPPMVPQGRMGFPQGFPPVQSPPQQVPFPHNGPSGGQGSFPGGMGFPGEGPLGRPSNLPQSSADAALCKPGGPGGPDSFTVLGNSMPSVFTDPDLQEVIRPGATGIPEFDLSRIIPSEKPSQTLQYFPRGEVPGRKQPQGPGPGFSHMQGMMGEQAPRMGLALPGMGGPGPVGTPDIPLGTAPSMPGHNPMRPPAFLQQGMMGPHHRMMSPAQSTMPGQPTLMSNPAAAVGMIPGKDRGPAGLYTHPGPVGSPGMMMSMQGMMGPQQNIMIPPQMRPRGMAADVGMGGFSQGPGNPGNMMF
T1 sequence (Q9BRQ0 whole entry, stated change not applied, chain 2 of 2, the tested form may be a part): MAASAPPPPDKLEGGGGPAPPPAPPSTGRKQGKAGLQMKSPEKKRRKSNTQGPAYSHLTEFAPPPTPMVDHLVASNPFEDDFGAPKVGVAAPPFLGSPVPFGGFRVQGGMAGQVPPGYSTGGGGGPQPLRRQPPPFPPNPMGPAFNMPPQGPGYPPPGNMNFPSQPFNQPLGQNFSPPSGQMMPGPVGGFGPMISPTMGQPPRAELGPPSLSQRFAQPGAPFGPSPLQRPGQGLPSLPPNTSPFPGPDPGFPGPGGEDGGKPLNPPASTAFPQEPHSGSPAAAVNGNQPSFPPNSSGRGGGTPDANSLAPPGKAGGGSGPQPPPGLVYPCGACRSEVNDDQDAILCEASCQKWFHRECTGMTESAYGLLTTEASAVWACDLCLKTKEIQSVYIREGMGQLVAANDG

Data set [3] has as its target T2, Avi-tagged wt BCL9-Pygo2 complex, biotinylated (human, UniProt O00512 1-1426; Q9BRQ0 1-406, biotin on the Avi tag (BirA)).
T2 construct: B-cell lymphoma 9 protein (BCL9), human, full length; Pygopus 2 (Pygo2), human, full length; also called Biotinylated BCL9-Pygo2; recombinant BCL9-Pygo; source: HEK293S GnTI- cells, co-transfected, purified (Flag beads, Superose 6 SEC), biotinylated with BirA; not shown: Avi, C-terminal, kept
The data set is described as above. The note with it: both partners purified.

Data set [4] concerns the target hBCL9ΔHD3-Pygo2 complex, Avi-tagged, biotinylated (human, UniProt O00512 1-1426; Q9BRQ0 1-406, lacking hBCL9(461–489) fragment, biotin on the Avi tag (BirA)). The experiment in a line: BLI.
Data set [5] concerns the molecule itself. The experiment in a line: crystal structure; Pygo2(58–84) peptide incubated with LDB1-SSBP2 (co-expressed, co-purified) at 5:1; hanging drop, 100 mM Li2SO4, 100 mM sodium citrate pH 5.6, 1% PEG400, 10 mM DTT, microseeding; 2.45 Å.
For data set [6], the target named is T3, MBP-LDB1(56–285)-SSBP2(1–94) complex, SSBP2 Y72A (human, UniProt Q86U70 56-285; P81877 1-94, Y72A).
T3 sequence 1: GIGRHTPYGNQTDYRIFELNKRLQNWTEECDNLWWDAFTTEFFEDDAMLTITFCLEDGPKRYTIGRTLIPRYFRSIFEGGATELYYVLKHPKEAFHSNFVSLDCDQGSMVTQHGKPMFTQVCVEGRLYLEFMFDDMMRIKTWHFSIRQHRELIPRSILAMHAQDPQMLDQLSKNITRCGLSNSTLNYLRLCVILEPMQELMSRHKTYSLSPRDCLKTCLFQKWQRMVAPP
T3 sequence 2: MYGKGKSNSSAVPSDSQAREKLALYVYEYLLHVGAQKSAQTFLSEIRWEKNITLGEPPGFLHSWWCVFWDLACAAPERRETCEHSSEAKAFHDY
The experiment in a line: BLI.

T2 sequence (O00512 whole entry, chain 1 of 2): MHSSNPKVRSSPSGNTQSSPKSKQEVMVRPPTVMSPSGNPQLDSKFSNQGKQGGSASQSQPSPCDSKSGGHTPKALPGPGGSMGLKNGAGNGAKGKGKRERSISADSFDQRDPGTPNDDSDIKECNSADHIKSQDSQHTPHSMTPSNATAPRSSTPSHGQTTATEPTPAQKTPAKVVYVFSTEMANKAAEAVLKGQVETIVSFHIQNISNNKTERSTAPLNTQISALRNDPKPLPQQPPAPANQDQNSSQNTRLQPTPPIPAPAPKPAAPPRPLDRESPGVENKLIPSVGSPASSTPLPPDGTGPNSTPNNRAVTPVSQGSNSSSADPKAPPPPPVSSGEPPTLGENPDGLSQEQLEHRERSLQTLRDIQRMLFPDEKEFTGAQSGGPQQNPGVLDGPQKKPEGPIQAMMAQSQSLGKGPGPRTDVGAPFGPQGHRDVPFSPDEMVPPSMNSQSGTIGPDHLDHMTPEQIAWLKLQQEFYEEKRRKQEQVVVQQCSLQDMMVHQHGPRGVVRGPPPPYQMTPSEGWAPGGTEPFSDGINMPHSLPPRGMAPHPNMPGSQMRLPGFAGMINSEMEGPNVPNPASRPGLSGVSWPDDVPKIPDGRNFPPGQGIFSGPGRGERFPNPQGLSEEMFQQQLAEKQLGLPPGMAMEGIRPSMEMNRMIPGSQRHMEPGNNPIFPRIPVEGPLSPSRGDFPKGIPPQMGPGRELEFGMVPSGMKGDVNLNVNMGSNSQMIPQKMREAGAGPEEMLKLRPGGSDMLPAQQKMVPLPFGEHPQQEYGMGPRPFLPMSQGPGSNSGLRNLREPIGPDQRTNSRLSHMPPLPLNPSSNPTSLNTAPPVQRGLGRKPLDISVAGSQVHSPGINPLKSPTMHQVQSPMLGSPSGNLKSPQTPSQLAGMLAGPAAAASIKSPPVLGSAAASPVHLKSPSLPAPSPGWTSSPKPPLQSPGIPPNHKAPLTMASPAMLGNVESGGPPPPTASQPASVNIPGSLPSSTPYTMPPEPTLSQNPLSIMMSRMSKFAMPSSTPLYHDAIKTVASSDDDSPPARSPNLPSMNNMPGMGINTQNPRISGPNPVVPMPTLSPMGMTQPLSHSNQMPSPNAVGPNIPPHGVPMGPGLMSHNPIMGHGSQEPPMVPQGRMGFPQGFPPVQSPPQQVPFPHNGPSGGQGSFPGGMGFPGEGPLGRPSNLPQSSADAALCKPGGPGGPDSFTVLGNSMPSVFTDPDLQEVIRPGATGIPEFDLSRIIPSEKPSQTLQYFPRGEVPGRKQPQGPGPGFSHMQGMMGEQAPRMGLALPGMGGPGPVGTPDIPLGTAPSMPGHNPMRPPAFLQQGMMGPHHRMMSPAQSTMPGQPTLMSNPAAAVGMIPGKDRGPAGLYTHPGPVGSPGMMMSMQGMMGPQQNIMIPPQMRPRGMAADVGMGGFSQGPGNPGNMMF
T2 sequence (Q9BRQ0 whole entry, chain 2 of 2): as the sequence (Q9BRQ0 whole entry, stated change not applied, chain 2 of 2, the tested form may be a part) above

One may read the Kd as the free concentration of one partner at which half of the binding sites on the other are occupied at equilibrium, for simple one-to-one binding. High values mean lower affinity, low ones higher affinity. In turn, “MBP-LDB1(56-285)-SSBP2(1-94) Y72A complex (from UniProt Q86U70 56-285; P81877 1-94)” showed a dissociation constant Kd in data set [1] of 22 µM.

B1: LDB1-SSBP2 complex (full-length human proteins) (complex)
chain 1: MSVGCACPGCSSKSFKLYSPKEPPNGNAFPPFHPGTMLDRDVGPTPMYPPTYLEPGIGRHTPYGNQTDYRIFELNKRLQNWTEECDNLWWDAFTTEFFEDDAMLTITFCLEDGPKRYTIGRTLIPRYFRSIFEGGATELYYVLKHPKEAFHSNFVSLDCDQGSMVTQHGKPMFTQVCVEGRLYLEFMFDDMMRIKTWHFSIRQHRELIPRSILAMHAQDPQMLDQLSKNITRCGLSNSTLNYLRLCVILEPMQELMSRHKTYSLSPRDCLKTCLFQKWQRMVAPPAEPTRQQPSKRRKRKMSGGSTMSSGGGNTNNSNSKKKSPASTFALSSQVPDVMVVGEPTLMGGEFGDEDERLITRLENTQFDAANGIDDEDSFNNSPALGANSPWNSKPPSSQESKSENPTSQASQ
chain 2: MYGKGKSNSSAVPSDSQAREKLALYVYEYLLHVGAQKSAQTFLSEIRWEKNITLGEPPGFLHSWWCVFWDLYCAAPERRETCEHSSEAKAFHDYSAAAAPSPVLGNIPPGDGMPVGPVPPGFFQPFMSPRYPGGPRPPLRIPNQALGGVPGSQPLLPSGMDPTRQQGHPNMGGPMQRMTPPRGMVPLGPQNYGGAMRPPLNALGGPGMPGMNMGPGGGRPWPNPTNANSIPYSSASPGNYVGPPGGGGPPGTPIMPSPADSTNSGDNMYTLMNAVPPGPNRPNFPMGPGSDGPMGGLGGMESHHMNGSLGSGDMDSISKNSPNNMSLSNQPGTPRDDGEMGGNFLNPFQSESYSPSMTMSV
notes: the discussion speaks of a 2:4 (LDB1:SSBP2) stoichiometry of the LDB1-SSBP2 core complex; not measured for the full-length complex; also called ChiLS; full-length LDB1-SSBP2 complex; source: HEK293S GnTI- cells, co-transfected, purified (Flag beads, Superose 6 SEC)
For B1, the binding result in data set [2] is recorded as “binds”. The Kd in data set [3] amounted to 0.032 µM; in data set [4], 0.039 µM.

B2: human LDB1(56–285), tags removed (domain or fragment, UniProt Q86U70 56-285, looked up)
chain: GIGRHTPYGNQTDYRIFELNKRLQNWTEECDNLWWDAFTTEFFEDDAMLTITFCLEDGPKRYTIGRTLIPRYFRSIFEGGATELYYVLKHPKEAFHSNFVSLDCDQGSMVTQHGKPMFTQVCVEGRLYLEFMFDDMMRIKTWHFSIRQHRELIPRSILAMHAQDPQMLDQLSKNITRCGLSNSTLNYLRLCVILEPMQELMSRHKTYSLSPRDCLKTCLFQKWQRMVAPP
notes: chain of the crystallised complex; source: E. coli BL21 (DE3), co-expressed with SSBP2(1–94), purified (Ni-NTA, TEV cleavage, HiTrap Q, Superdex 200); not shown: His, N-terminal, cleaved; MBP, N-terminal, cleaved
For B2, the binding result in data set [5] is recorded as “binds”.

B3: GST-Pygo2(58–84) (domain or fragment)
chain: LTEFAPPPTPMVDHLVASNPFEDDFGA
Turning to B3, in data set [6], the Kd is 22 µM. This counts as double-digit micromolar.

B4: human SSBP2(1–94), tag removed (domain or fragment, UniProt P81877 1-94, looked up)
chain: MYGKGKSNSSAVPSDSQAREKLALYVYEYLLHVGAQKSAQTFLSEIRWEKNITLGEPPGFLHSWWCVFWDLYCAAPERRETCEHSSEAKAFHDY
notes: chain of the crystallised complex; not shown: His, N-terminal, cleaved
In the case of B4, in data set [5], the binding result is reported as “binds”.
